Legend:
[1] = target: ceh-36 (C37E2.4) (Caenorhabditis elegans) (UniProt Q93352)
[2] = target: ceh-37 (C37E2.5) (Caenorhabditis elegans) (UniProt Q93356)
[3] = system: ceh-53 (C09G12.1) (Caenorhabditis elegans)
[4] = target: T1, ceh-90 (R03E1.4) (Caenorhabditis elegans) (UniProt Q69YW8)
T1 sequence: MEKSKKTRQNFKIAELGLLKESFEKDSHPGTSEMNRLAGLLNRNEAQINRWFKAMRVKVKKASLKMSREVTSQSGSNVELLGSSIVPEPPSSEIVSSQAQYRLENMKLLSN

[5] = target: T2, ceh-34 (C10G8.6) (Caenorhabditis elegans) (UniProt Q94165)
T2 sequence: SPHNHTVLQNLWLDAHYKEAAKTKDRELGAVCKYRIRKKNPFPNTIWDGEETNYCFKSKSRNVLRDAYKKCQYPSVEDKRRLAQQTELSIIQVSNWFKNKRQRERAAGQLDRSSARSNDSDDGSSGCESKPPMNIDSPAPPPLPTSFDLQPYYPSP

[6] = target: dmd-4 (C27C12.6) (Caenorhabditis elegans) (UniProt Q18248)
dmd-4 (C27C12.6) (Caenorhabditis elegans), sequence (Q18248 1-114): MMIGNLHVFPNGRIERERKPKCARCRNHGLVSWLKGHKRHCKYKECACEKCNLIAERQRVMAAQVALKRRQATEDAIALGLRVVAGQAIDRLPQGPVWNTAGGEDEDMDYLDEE

[7] = target: T3, C07E3.6 (C07E3.6) (Caenorhabditis elegans) (UniProt Q17792)
T3 sequence: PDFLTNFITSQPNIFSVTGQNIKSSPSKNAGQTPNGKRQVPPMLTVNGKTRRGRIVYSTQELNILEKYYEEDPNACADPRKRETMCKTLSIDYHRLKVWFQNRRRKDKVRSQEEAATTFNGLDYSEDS

[8] = target: T4, ceh-23 (ZK652.5) (Caenorhabditis elegans) (UniProt P34663)
T4 sequence: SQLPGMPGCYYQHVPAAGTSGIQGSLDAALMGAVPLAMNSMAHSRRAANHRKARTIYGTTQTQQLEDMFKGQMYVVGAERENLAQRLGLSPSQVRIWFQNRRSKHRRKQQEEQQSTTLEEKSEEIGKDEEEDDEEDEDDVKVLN

[9] = target: T5, eyg-1 (Y53C12C.1) (Caenorhabditis elegans) (UniProt O01996)
T5 sequence: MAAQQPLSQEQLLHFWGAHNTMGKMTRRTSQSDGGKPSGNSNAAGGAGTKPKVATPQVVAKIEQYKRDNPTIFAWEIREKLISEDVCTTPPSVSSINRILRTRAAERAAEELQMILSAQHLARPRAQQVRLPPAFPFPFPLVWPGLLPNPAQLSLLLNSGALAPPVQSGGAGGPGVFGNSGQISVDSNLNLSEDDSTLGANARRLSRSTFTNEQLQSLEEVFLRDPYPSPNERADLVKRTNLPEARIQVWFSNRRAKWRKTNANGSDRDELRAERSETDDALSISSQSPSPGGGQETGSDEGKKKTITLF

[10] = target: T6, ceh-51 (Y80D3A.3) (Caenorhabditis elegans) (UniProt Q9U1R1)
T6 sequence: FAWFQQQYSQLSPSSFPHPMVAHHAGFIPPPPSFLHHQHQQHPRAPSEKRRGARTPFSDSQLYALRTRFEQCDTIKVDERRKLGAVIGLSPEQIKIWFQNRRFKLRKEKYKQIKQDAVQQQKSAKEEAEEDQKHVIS

[11] = target: T7, end-1 (F58E10.2) (Caenorhabditis elegans) (UniProt G5EDN4)
T7 sequence: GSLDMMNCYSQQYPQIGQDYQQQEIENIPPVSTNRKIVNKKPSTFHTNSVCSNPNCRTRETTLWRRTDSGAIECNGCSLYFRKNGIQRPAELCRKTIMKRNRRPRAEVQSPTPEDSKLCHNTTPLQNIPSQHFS

ceh-36 (C37E2.4) (Caenorhabditis elegans), sequence (Q93352 6-165): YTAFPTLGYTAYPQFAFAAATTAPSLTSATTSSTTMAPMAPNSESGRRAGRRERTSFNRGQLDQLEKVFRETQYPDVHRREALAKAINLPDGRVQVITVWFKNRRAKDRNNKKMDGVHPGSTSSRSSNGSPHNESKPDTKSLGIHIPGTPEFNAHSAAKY
ceh-53 (C09G12.1) (Caenorhabditis elegans), sequence (chain, as listed by the source): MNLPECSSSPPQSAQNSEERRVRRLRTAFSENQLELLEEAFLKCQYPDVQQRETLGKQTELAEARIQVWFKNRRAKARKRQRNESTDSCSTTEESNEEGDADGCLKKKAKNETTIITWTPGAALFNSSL
ceh-37 (C37E2.5) (Caenorhabditis elegans), sequence (Q93356 1-148): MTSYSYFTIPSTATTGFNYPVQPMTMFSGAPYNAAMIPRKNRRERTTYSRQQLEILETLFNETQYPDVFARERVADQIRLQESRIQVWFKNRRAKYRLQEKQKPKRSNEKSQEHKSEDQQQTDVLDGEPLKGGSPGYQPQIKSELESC

AAGGATTA (double strand) [8-mer AAGGATTA]
binding signal (PBM E-score (-0.5 to 0.5)) [1]: 0.492
binding signal (PBM E-score (-0.5 to 0.5)) [2]: 0.493
binding signal (PBM E-score (-0.5 to 0.5)) [3]: 0.495

AAGTTTTA (double strand) [8-mer AAGTTTTA]
binding signal (PBM E-score (-0.5 to 0.5)) [4]: 0.492

AATGATAC (double strand) [8-mer AATGATAC]
binding signal (PBM E-score (-0.5 to 0.5)) [5]: 0.461
binding signal (PBM E-score (-0.5 to 0.5)) [6]: 0.482

ACGGATTA (double strand) [8-mer ACGGATTA]
binding signal (PBM E-score (-0.5 to 0.5)) [2]: 0.487
binding signal (PBM E-score (-0.5 to 0.5)) [3]: 0.494

ACTAAAAC (double strand) [8-mer ACTAAAAC]
binding signal (PBM E-score (-0.5 to 0.5)) [4]: 0.487

ACTAATCC (double strand) [8-mer ACTAATCC]
binding signal (PBM E-score (-0.5 to 0.5)) [1]: 0.49
binding signal (PBM E-score (-0.5 to 0.5)) [3]: 0.497

ACTAATTA (double strand) [8-mer ACTAATTA]
binding signal (PBM E-score (-0.5 to 0.5)) [7]: 0.498
binding signal (PBM E-score (-0.5 to 0.5)) [8]: 0.495
binding signal (PBM E-score (-0.5 to 0.5)) [9]: 0.477

AGGATTAA (double strand) [8-mer AGGATTAA]
binding signal (PBM E-score (-0.5 to 0.5)) [1]: 0.492
binding signal (PBM E-score (-0.5 to 0.5)) [2]: 0.491
binding signal (PBM E-score (-0.5 to 0.5)) [3]: 0.494

AGGATTAG (double strand) [8-mer AGGATTAG]
binding signal (PBM E-score (-0.5 to 0.5)) [1]: 0.492
binding signal (PBM E-score (-0.5 to 0.5)) [3]: 0.496

AGGGATTA (double strand) [8-mer AGGGATTA]
binding signal (PBM E-score (-0.5 to 0.5)) [2]: 0.487

AGGTTTTA (double strand) [8-mer AGGTTTTA]
binding signal (PBM E-score (-0.5 to 0.5)) [4]: 0.496

AGTTTTAA (double strand) [8-mer AGTTTTAA]
binding signal (PBM E-score (-0.5 to 0.5)) [4]: 0.492

AGTTTTAG (double strand) [8-mer AGTTTTAG]
binding signal (PBM E-score (-0.5 to 0.5)) [4]: 0.486

ATAAAACC (double strand) [8-mer ATAAAACC]
binding signal (PBM E-score (-0.5 to 0.5)) [4]: 0.495

ATAATCCG (double strand) [8-mer ATAATCCG]
binding signal (PBM E-score (-0.5 to 0.5)) [2]: 0.49

ATAATTAA (double strand) [8-mer ATAATTAA]
binding signal (PBM E-score (-0.5 to 0.5)) [8]: 0.493

ATATAATA (double strand) [8-mer ATATAATA]
binding signal (PBM E-score (-0.5 to 0.5)) [10]: 0.472

ATCAATTA (double strand) [8-mer ATCAATTA]
binding signal (PBM E-score (-0.5 to 0.5)) [9]: 0.475

ATGATATC (double strand) [8-mer ATGATATC]
binding signal (PBM E-score (-0.5 to 0.5)) [5]: 0.476
binding signal (PBM E-score (-0.5 to 0.5)) [11]: 0.484

ATGCGCAT (double strand) [8-mer ATGCGCAT]
binding signal (PBM E-score (-0.5 to 0.5)) [9]: 0.475

ATTAAAAC (double strand) [8-mer ATTAAAAC]
binding signal (PBM E-score (-0.5 to 0.5)) [4]: 0.487

ATTAAGTG (double strand) [8-mer ATTAAGTG]
binding signal (PBM E-score (-0.5 to 0.5)) [10]: 0.472

ATTAATAA (double strand) [8-mer ATTAATAA]
binding signal (PBM E-score (-0.5 to 0.5)) [10]: 0.474

ATTAATAG (double strand) [8-mer ATTAATAG]
binding signal (PBM E-score (-0.5 to 0.5)) [10]: 0.478

ATTAATCC (double strand) [8-mer ATTAATCC]
binding signal (PBM E-score (-0.5 to 0.5)) [1]: 0.494
binding signal (PBM E-score (-0.5 to 0.5)) [2]: 0.492
binding signal (PBM E-score (-0.5 to 0.5)) [3]: 0.495

ATTAATGA (double strand) [8-mer ATTAATGA]
binding signal (PBM E-score (-0.5 to 0.5)) [10]: 0.469

ATTAATTA (double strand) [8-mer ATTAATTA]
binding signal (PBM E-score (-0.5 to 0.5)) [7]: 0.495
binding signal (PBM E-score (-0.5 to 0.5)) [8]: 0.495
binding signal (PBM E-score (-0.5 to 0.5)) [10]: 0.474

ATTAATTG (double strand) [8-mer ATTAATTG]
binding signal (PBM E-score (-0.5 to 0.5)) [10]: 0.472
binding signal (PBM E-score (-0.5 to 0.5)) [9]: 0.478

ATTGATAC (double strand) [8-mer ATTGATAC]
binding signal (PBM E-score (-0.5 to 0.5)) [5]: 0.467
binding signal (PBM E-score (-0.5 to 0.5)) [6]: 0.487

CAATTAAC (double strand) [8-mer CAATTAAC]
binding signal (PBM E-score (-0.5 to 0.5)) [7]: 0.495
binding signal (PBM E-score (-0.5 to 0.5)) [9]: 0.476

CCAATTAA (double strand) [8-mer CCAATTAA]
binding signal (PBM E-score (-0.5 to 0.5)) [9]: 0.479

CCTAATTA (double strand) [8-mer CCTAATTA]
binding signal (PBM E-score (-0.5 to 0.5)) [7]: 0.496
binding signal (PBM E-score (-0.5 to 0.5)) [8]: 0.495

CGGATTAA (double strand) [8-mer CGGATTAA]
binding signal (PBM E-score (-0.5 to 0.5)) [1]: 0.489
binding signal (PBM E-score (-0.5 to 0.5)) [2]: 0.492
binding signal (PBM E-score (-0.5 to 0.5)) [3]: 0.494

CTAAAACC (double strand) [8-mer CTAAAACC]
binding signal (PBM E-score (-0.5 to 0.5)) [4]: 0.493

CTAATCCC (double strand) [8-mer CTAATCCC]
binding signal (PBM E-score (-0.5 to 0.5)) [1]: 0.49
binding signal (PBM E-score (-0.5 to 0.5)) [3]: 0.496

CTTAAAAC (double strand) [8-mer CTTAAAAC]
binding signal (PBM E-score (-0.5 to 0.5)) [4]: 0.494

CTTAATCC (double strand) [8-mer CTTAATCC]
binding signal (PBM E-score (-0.5 to 0.5)) [1]: 0.489
binding signal (PBM E-score (-0.5 to 0.5)) [3]: 0.494

GATAATCC (double strand) [8-mer GATAATCC]
binding signal (PBM E-score (-0.5 to 0.5)) [2]: 0.491

GCAATTAA (double strand) [8-mer GCAATTAA]
binding signal (PBM E-score (-0.5 to 0.5)) [10]: 0.473

GCACTTAA (double strand) [8-mer GCACTTAA]
binding signal (PBM E-score (-0.5 to 0.5)) [10]: 0.469

GCGGATTA (double strand) [8-mer GCGGATTA]
binding signal (PBM E-score (-0.5 to 0.5)) [1]: 0.491
binding signal (PBM E-score (-0.5 to 0.5)) [2]: 0.491
binding signal (PBM E-score (-0.5 to 0.5)) [3]: 0.494

GCTAATCC (double strand) [8-mer GCTAATCC]
binding signal (PBM E-score (-0.5 to 0.5)) [1]: 0.493
binding signal (PBM E-score (-0.5 to 0.5)) [2]: 0.49
binding signal (PBM E-score (-0.5 to 0.5)) [3]: 0.497

GCTATTAA (double strand) [8-mer GCTATTAA]
binding signal (PBM E-score (-0.5 to 0.5)) [10]: 0.467

GGATTAAA (double strand) [8-mer GGATTAAA]
binding signal (PBM E-score (-0.5 to 0.5)) [1]: 0.49
binding signal (PBM E-score (-0.5 to 0.5)) [2]: 0.488

GGATTAAC (double strand) [8-mer GGATTAAC]
binding signal (PBM E-score (-0.5 to 0.5)) [1]: 0.49
binding signal (PBM E-score (-0.5 to 0.5)) [2]: 0.492
binding signal (PBM E-score (-0.5 to 0.5)) [3]: 0.495

GGGATTAA (double strand) [8-mer GGGATTAA]
binding signal (PBM E-score (-0.5 to 0.5)) [1]: 0.494
binding signal (PBM E-score (-0.5 to 0.5)) [2]: 0.493
binding signal (PBM E-score (-0.5 to 0.5)) [3]: 0.496

GGGGATTA (double strand) [8-mer GGGGATTA]
binding signal (PBM E-score (-0.5 to 0.5)) [1]: 0.495
binding signal (PBM E-score (-0.5 to 0.5)) [2]: 0.494
binding signal (PBM E-score (-0.5 to 0.5)) [3]: 0.497

GGGTTTAA (double strand) [8-mer GGGTTTAA]
binding signal (PBM E-score (-0.5 to 0.5)) [4]: 0.487

GGGTTTTA (double strand) [8-mer GGGTTTTA]
binding signal (PBM E-score (-0.5 to 0.5)) [4]: 0.498

GGTAATTA (double strand) [8-mer GGTAATTA]
binding signal (PBM E-score (-0.5 to 0.5)) [7]: 0.497
binding signal (PBM E-score (-0.5 to 0.5)) [8]: 0.494

GGTTTTAA (double strand) [8-mer GGTTTTAA]
binding signal (PBM E-score (-0.5 to 0.5)) [4]: 0.498

GGTTTTTA (double strand) [8-mer GGTTTTTA]
binding signal (PBM E-score (-0.5 to 0.5)) [4]: 0.485

GTAATTAA (double strand) [8-mer GTAATTAA]
binding signal (PBM E-score (-0.5 to 0.5)) [7]: 0.497
binding signal (PBM E-score (-0.5 to 0.5)) [8]: 0.492

GTAATTAC (double strand) [8-mer GTAATTAC]
binding signal (PBM E-score (-0.5 to 0.5)) [10]: 0.478
binding signal (PBM E-score (-0.5 to 0.5)) [9]: 0.482

GTTAAAAC (double strand) [8-mer GTTAAAAC]
binding signal (PBM E-score (-0.5 to 0.5)) [4]: 0.492

TAAAACCA (double strand) [8-mer TAAAACCA]
binding signal (PBM E-score (-0.5 to 0.5)) [4]: 0.488

TAATCCGA (double strand) [8-mer TAATCCGA]
binding signal (PBM E-score (-0.5 to 0.5)) [2]: 0.489

TAATCCTA (double strand) [8-mer TAATCCTA]
binding signal (PBM E-score (-0.5 to 0.5)) [1]: 0.492

TAATTAAA (double strand) [8-mer TAATTAAA]
binding signal (PBM E-score (-0.5 to 0.5)) [8]: 0.493

TAATTACA (double strand) [8-mer TAATTACA]
binding signal (PBM E-score (-0.5 to 0.5)) [10]: 0.467

TATTAATA (double strand) [8-mer TATTAATA]
binding signal (PBM E-score (-0.5 to 0.5)) [10]: 0.483

TCAATTAA (double strand) [8-mer TCAATTAA]
binding signal (PBM E-score (-0.5 to 0.5)) [10]: 0.467
binding signal (PBM E-score (-0.5 to 0.5)) [9]: 0.48
